Experimental data taken from patent publication EP2182008A2.

Tests used:
[1] = biological target: LFA-1 leucine zipper fusion protein (UniProt P20701); assay: ELISA, CAM/Ig on captured integrin
[2] = biological target: soluble human αd/CD18 leucine zipper heterodimer (human) (UniProt P05107); assay: ELISA, CAM/Ig on αd/CD18LZ captured with 212D

Row | fold above background [1] | fold increase in signal above background [2] | Binder
1 | 10 fold |  | ICAM-2/Ig (Fc fusion, part only; not given: Ig Fc portion, UniProt P13598 25-223, looked up, part only) chain, part: KVFEVHVRPKKLAVEPKGSLEVNCSTTCNQPEVGGLETSLDKILLDEQAQWKHYLVSNISHDTVLQCHFTCSGKQESMNSNVSVYQPPRQVILTLQPTLVAVGKSFTIECRVPTVEPLDSLTLFLFRGNETLHYETFGKAAPAPQEATATFNSTADREDGHRNFSCLAVLDLMSRGGNIFHKHSAPKMLEIYEPVSDSQ
2 |  | 5 fold | VCAM-1/IgG1 fusion protein (seven extracellular immunoglobulin-like domains) (Fc fusion, UniProt P19320 25-698, looked up, not shown: a dimerising Fc or GST) FKIETTPESRYLAQIGDSVSLTCSTTGCESPFFSWRTQIDSPLNGKVTNEGTTSTLTMNPVSFGNEHSYLCTATCESRKLEKGIQVEIYSFPKDPEIHLSGPLEAGKPITVKCSVADVYPFDRLEIDLLKGDHLMKSQEFLEDADRKSLETKSLEVTFTPVIEDIGKVLVCRAKLHIDEMDSVPTVRQAVKELQVYISPKNTVISVNPSTKLQEGGSVTMTCSSEGLPAPEIFWSKKLDNGNLQHLSGNATLTLIAMRMEDSGIYVCEGVNLIGKNRKEVELIVQEKPFTVEISPGPRIAAQIGDSVMLTCSVMGCESPSFSWRTQIDSPLSGKVRSEGTNSTLTLSPVSFENEHSYLCTVTCGHKKLEKGIQVELYSFPRDPEIEMSGGLVNGSSVTVSCKVPSVYPLDRLEIELLKGETILENIEFLEDTDMKSLENKSLEMTFIPTIEDTGKALVCQAKLHIDDMEFEPKQRQSTQTLYVNVAPRDTTVLVSPSSILEEGSSVNMTCLSQGFPAPKILWSRQLPNGELQPLSENATLTLISTKMEDSGVYLCEGINQAGRSRKEVELIIQVTPKDIKLTAFPSESVKEGDTVIISCTCGNVPETWIILKKKAETGDTVLKSIDGAYTIRKAQLKDAGVYECESKNKVGSQLRSLTLDVQGRENNKDYFSPE
